T1: Full-length human TIGIT on CHO cells overexpressing TIGIT (human, UniProt Q495A1 22-244)
T1 construct: also called TIGIT-CHO cells; CHO cells overexpressing human TIGIT
T1 sequence: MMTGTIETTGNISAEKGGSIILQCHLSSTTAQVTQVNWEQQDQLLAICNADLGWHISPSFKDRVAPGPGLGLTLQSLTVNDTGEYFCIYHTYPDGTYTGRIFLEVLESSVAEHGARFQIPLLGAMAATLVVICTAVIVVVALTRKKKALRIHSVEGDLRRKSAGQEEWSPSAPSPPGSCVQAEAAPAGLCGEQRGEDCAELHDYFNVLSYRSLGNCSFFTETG

T2: human TIGIT on SEB-activated human PBMC (human, UniProt Q495A1)
T2 construct: native, on the cell surface
T2 sequence (receptor chain, looked up): T1 sequence

T3: human TIGIT (Sinobiological Co., Ltd., Cat. 10917-H08-H) (human, UniProt Q495A1 22-141)
T3 construct: also called huTIGIT; TIGIT-His
T3 sequence (looked up): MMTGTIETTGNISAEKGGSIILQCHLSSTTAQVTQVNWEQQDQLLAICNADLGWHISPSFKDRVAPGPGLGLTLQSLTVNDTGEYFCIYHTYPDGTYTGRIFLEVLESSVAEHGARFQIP

T4: TIGIT fusion protein with Fc or mFc tag (human, UniProt Q495A1 22-141)
T4 construct: extracellular domain; also called TIGIT-Fc; TIGIT-mFc
T4 sequence (looked up): T3 sequence (looked up)

B1: h1710-01 (antibody, human IgG4 S228P, kappa, V domains shown)
VH: EVQLVQSGAEVKKPGASVKVSCKASGYTFTNYYMHWVRQAPGQGLEWMGRIDPTSGATKYNDNFKGRVTMTRDTSTSTVYMELSSLRSEDTAVYYCAREGGFGYYFDYWGQGTTVTVSS
VL: DIQMTQSPSSLSASVGDRVTITCRTSENIFTYLAWYQQKPGKAPKLLIYNAKTFAEGVPSRFSGSGSGTDFTLTISSLQPEDFATYYCQHHYGIPLPFGQGTKLEIKR
notes: also called humanized TIGIT antibody h1710-01
B2: h1711-04 (antibody, human IgG4 S228P, kappa, V domains shown)
VH: EVQLVQSGAEVKKPGSSVKVSCKASGYTFSNYWIGWVRQAPGQGLEWIGDIYPGGAYTNYNEKFKDRVTITADKSTSTAYMEFSSLRSEDTAVYYCTRGDYYDSSGRAMDYWGQGTLVTVSS
VL: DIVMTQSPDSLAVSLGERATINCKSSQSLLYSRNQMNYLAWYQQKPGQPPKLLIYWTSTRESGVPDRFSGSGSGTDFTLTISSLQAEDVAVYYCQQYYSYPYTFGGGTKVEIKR
notes: also called humanized TIGIT antibody h1711-04
B3: h1709-10 (antibody, human IgG4 S228P, kappa, V domains shown)
VH: EVQLVQSGAEVKKPGASVKVSCKASGYTFTDYYMHWVRQAPGQGLEWMGLVYPYNDNTGYNRKFKGRVTMTVDTSTSTVYMELNSLRSEDTAVYYCARGGPSNWNYFDYWGQGTLVTVSS
VL: DIQMTQSPSSLSASVGDRVTITCKASQNVVTAVAWYQQKPGKSPKLLIYSASNRYTGVPDRFSGSGSGTDFTLTISSLQPEDFATYFCQQYTLYPLTFGGGTKVEIKR
notes: also called humanized TIGIT antibody h1709-10

How the values were obtained:
[1] = biological target: T1, Full-length human TIGIT on CHO cells …; experiment: cell ELISA on fixed CHO cells overexpressing human TIGIT
[2] = biological target: T2, human TIGIT on SEB-activated human PBMC; experiment: flow cytometry on SEB-activated human PBMC, PE anti-human IgG, MFI
[3] = biological target: T1, Full-length human TIGIT on CHO cells …; experiment: FACS blocking assay on TIGIT-CHO cells; competitor CF633-labeled CD155-Fc at 2 ug/ml
[4] = biological target: T3, human TIGIT (Sinobiological Co., Ltd., …); experiment: SPR (Biacore T200), antibody captured via Protein A, huTIGIT in mobile phase, 1:1 Langmuir fit
[5] = biological target: T5, cynoTIGIT-mFc (fusion protein of cynoTIGIT extracellular domain and mouse IgG2a Fc fragment) (cynomolgus); experiment: SPR (Biacore T200), antibody held by Fc affinity capture, cynoTIGIT-mFc in mobile phase, 1:1 Langmuir fit
T5 construct: also called monkey TIGIT; cynomolgus TIGIT-mFc fusion protein
T5 sequence (chain, as listed by the source limits assumed): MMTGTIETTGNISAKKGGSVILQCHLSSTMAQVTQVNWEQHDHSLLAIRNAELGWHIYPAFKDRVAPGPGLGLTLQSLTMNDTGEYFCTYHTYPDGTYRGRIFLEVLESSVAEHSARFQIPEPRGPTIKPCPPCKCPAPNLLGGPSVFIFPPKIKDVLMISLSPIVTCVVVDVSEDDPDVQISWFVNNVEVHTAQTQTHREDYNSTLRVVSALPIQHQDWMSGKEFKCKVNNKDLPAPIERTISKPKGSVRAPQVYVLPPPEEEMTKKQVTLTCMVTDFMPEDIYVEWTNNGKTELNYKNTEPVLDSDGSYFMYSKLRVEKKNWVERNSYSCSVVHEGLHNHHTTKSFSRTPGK

[6] = biological target: T4, TIGIT fusion protein with Fc or mFc tag; experiment: ELISA: human TIGIT-Fc or TIGIT-mFc captured by coated anti-Fc antibody, HRP secondary antibody, OD450
[7] = biological target: T4, TIGIT fusion protein with Fc or mFc tag; experiment: HTRF blocking assay: TIGIT-Fc or TIGIT-mFc with biotinylated CD155 as the blocked ligand, ratio 665/620
[8] = biological target: T5, cynoTIGIT-mFc (fusion protein of …); experiment: ELISA: cynomolgus TIGIT-Fc or TIGIT-mFc captured by coated anti-Fc antibody, HRP secondary antibody, OD450
[9] = biological target: T4, TIGIT fusion protein with Fc or mFc tag; experiment: FACS blocking assay: TIGIT-mFc pre-incubated with the antibody, added to CHO cells overexpressing CD112 (blocked ligand), PE anti-mouse IgG, MFI
[10] = biological target: T4, TIGIT fusion protein with Fc or mFc tag; experiment: blocking cell ELISA: TIGIT-hFc or TIGIT-mFc (0.2 ug/ml) pre-mixed with the antibody, added to fixed CHO cells overexpressing CD155 (blocked ligand), OD450
[11] = biological target: T3, human TIGIT (Sinobiological Co., Ltd., …); experiment: SPR (Biacore), captured antibody, TIGIT-His as analyte

Binder | EC50 [1] [pM] | EC50 (read off the curve) [2] [pM] | IC50 [3] [pM] | Kd [4] [pM] | koff [4] [s⁻¹] | kon [4] [M⁻¹ s⁻¹] | Kd [5] [pM] | koff [5] [s⁻¹] | kon [5] [M⁻¹ s⁻¹] | EC50 (read off the curve) [6] [pM] | IC50 (read off the curve) [7] [pM] | EC50 (read off the curve) [8] [pM] | IC50 (read off the curve) [9] [pM] | IC50 (read off the curve) [10] [pM] | Kd [11] [pM] | koff [11] [s⁻¹] | kon [11] [M⁻¹ s⁻¹]
B1 | 76.9 | ~300 | 468 | 147 | 0.00024 | 1.63e+06 | 322 | 0.000371 | 1.15e+06 | ~100 | ~2000 | ~100 | ~5000 | ~1000 |  |  | 
B2 | 58.7 | ~300 | 570 | 238 | 0.000436 | 1.83e+06 | 129 | 0.000317 | 2.46e+06 | ~100 | ~3000 | ~100 | ~5000 | ~1000 | 210 | 0.000442 | 2.1e+06
B3 | 56.8 | ~300 | 427 | 104 | 0.000259 | 2.49e+06 | 300 | 0.000415 | 1.39e+06 | ~100 | ~3000 | ~100 | ~5000 | ~1000 |  |  | 

Source: US20200255516A1 (JIANGSU HENGRUI MEDICINE, published 2020)
